In US20240182549A1, “PEPTIDES AND ANTIBODY FUSIONS THAT BIND TO SARS-COV-2 AND METHODS OF USING SAME” (priority 2021, published 2024):
Ends that are not written are not given here.

Assays:
[1] = molecular target: T1, S protein ECD (Severe acute respiratory syndrome coronavirus 2, UniProt P0DTC2, K986P/R682S/R683S/R685S/V987P)
[2] = molecular target: SARS-CoV-2 S protein (Severe acute respiratory syndrome coronavirus 2, UniProt P0DTC2, K986P/R682S/R683S/R685S/V987P)
[3] = molecular target: T1, S protein ECD; remark: listed apart in the source

Substance | peptide-phage binding to ECD blocked by NTD-binding antibodies [1] | peptide-phage binding to ECD blocked by RBD-binding antibodies [1] | affinity improvement over 15033 [2] | binding to S protein ectodomain (in words) [3]
p16 (DFDFAENWMEQLKVML; not fully specified) | blocked | not by those that bound to the ACE2-binding site of the RBD | significant affinity improvement | did not exhibit detectable binding
p102 (ECWEWSYQLQEWSPCP; not fully specified; cysteine pairing not given here) | not by those that bound to the NTD | blocked | – | –
